This is an account of results in the supplement of paper PMC10567573.

The data set in a line: protein stability index of a GFP-peptide fusion (GPS, HEK-293T) (PSI 1-6); higher = more stable.
The mark [1] stands for this setting: treatment: DMSO, c terminus: a fixed tail appended.
The mark [2] stands for this setting: treatment: MLN4924 1 uM, 8 h, c terminus: a fixed tail appended.
[3] abbreviates: treatment: DMSO, c terminus: native.
Setting [4] is: treatment: MLN4924 1 uM, 8 h, c terminus: native.

± gives the standard deviation.
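Also: 24-mer peptide tiles fused after GFP, lentivirally expressed, FACS-sorted into six equal bins by GFP/DsRed ratio, decoded by Illumina sequencing, PSI is the read-weighted mean bin number.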

For IENYKKQTRNGLGKDHEILRRRIE [FUT8], the protein stability index runs as follows: under setting [1], 3.67 ± 0.24; under setting [2], 3.87 ± 0.24.
The corresponding values for IFAWNKWIDIKQFVWYTPPTFMIA [STEAP1] are 2.97 ± 1.2 and 2.95 ± 0.64.
The corresponding values for IFCLHGGLSPSIDTLDHIRALDRL [PPP2CA] are 2.29 ± 0.59 and 2.21 ± 0.17.
Take IFGASSVDFSLSGRLLFAGYNDYT [GNB5]: the protein stability index was found to be 2.6 ± 0.63 under setting [1] and 2.12 ± 0.49 under setting [2].
Regarding IFHSRTSLQKLSTKLSAQSAQYSQ [FCHSD1], the protein stability index reads like this: under setting [1], 2.91 ± 0.17; under setting [2], 2.98 ± 0.34.
Regarding IFTKKLPHPDLPAEEKEQLLHNDE [USP39], the protein stability index under setting [1] is 5 ± 0.16 and the protein stability index under setting [2] was found to be 5.03 ± 0.1.
For IGPPSAAAIFKIYLSCLEELMKCQ [TRIP13], the protein stability index runs as follows: under setting [1], 2.16 ± 0.31; under setting [2], 2.21 ± 0.34.
As for IGSCVTNPCGPRSRCGPCNTFGY [KRT33B], the protein stability index is 2.9 ± 0.28 under setting [3] and 2.97 ± 0.34 under setting [4].
For the sequence IHQETVSKNGNGLKNTPRFKRRRV [PCMTD2], the protein stability index runs as follows: under setting [1], 4.41 ± 0.27; under setting [2], 4.63 ± 0.27.
IINDTYSEVKEELAGQKDELQLSD [PKD2L1]: the protein stability index worked out at 5.35 ± 0.23 under setting [1] and 5.28 ± 0.22 under setting [2].
Regarding IKEQLIQEGLLDRCVSFQARFAEK [HDAC6], the protein stability index was found to be 2.81 ± 0.19 under setting [1] and 2.73 ± 0.36 under setting [2].
For IKRLVGSDQETLRIHERLVAGSLA [SLC25A25], the protein stability index runs as follows: under setting [1], 2.74 ± 0.31; under setting [2], 2.62 ± 0.18.
The corresponding values for ILPKELQGWVREHCPESGEEAVIL [ZSCAN9] are 2.74 ± 0.35 and 2.95 ± 0.47.
Take INPFTPDSLLLHSSGQCRRRKRTY [WEE1]: the protein stability index came out at 3.62 ± 0.4 under setting [1] and 3.83 ± 0.41 under setting [2].
For IQNSDNDLPVVQGSSSFSLKGYPS [TRIM29], the protein stability index runs as follows: under setting [1], 3.91 ± 0.29; under setting [2], 4.07 ± 0.2.
Regarding IQSWDINSRRNINYRSFEPILRLL [ZER1], the protein stability index is 2.31 ± 0.099 under setting [1] and 2.41 ± 0.21 under setting [2].
As for IRKTVKRLRKHQHVGDFARDLAAR [ELOA2], the protein stability index is 3.6 ± 0.23 under setting [1] and 3.69 ± 0.23 under setting [2].
The corresponding values for IRMIVRGTLGSCSSSSECLEDSTM [PLK2] are 2.3 ± 0.3 and 2.25 ± 0.12.
For IRNSRPLVKKVEEDEAGGRFVAFS [UFD1], the protein stability index by setting is: under setting [1], 4.11 ± 0.15; under setting [2], 4.05 ± 0.21.
In the case of IRQVLQGLDYLHSKCKIIHTDIKP [SRPK2], the protein stability index was 2.35 ± 0.44 under setting [1] and 2.22 ± 0.23 under setting [2].
For IRVMVHGRNHTPFLGHHSFSVRPG [SCNN1D], the protein stability index under setting [1] was 2.55 ± 0.24 and the protein stability index under setting [2] is 2.85 ± 0.88.
ISDFGRQQLLPPFPSLHQSLPQNQ [EHMT1]: the protein stability index reads like this: under setting [1], 3.45 ± 0.14; under setting [2], 3.28 ± 0.23.
The corresponding values for ISEAQLKDRETSKVIYDFIEKTGG [WASL] are 3.42 ± 0.13 and 3.67 ± 0.15.
In turn, ISIVIFCLETLPEFRDDRDLVMAL [KCNA4] came in with a protein stability index under setting [1] of 3.04 ± 0.81 and a protein stability index under setting [2] of 2.84 ± 0.68.
In the case of ISLAKGPPGPKGDQGDEGKEGRPG [SCARA5], the protein stability index was found to be 5.24 ± 0.26 under setting [1] and 5.485 ± 0.034 under setting [2].
The corresponding values for ISNIDTTIEGTSDDLTVVDAASLR [MFF] are 5.09 ± 0.27 and 4.82 ± 0.56.
For the sequence ISQEEFARQLQLSDPQTVAGAFGY [LPCAT4], the protein stability index under setting [1] was 3.41 ± 0.43 and the protein stability index under setting [2] turned out to be 3.09 ± 0.41.
As to ITQSWQVSVRVQPRGRAHLLPNPY [C22orf15], the protein stability index under setting [1] was determined as 2.59 ± 0.83 and the protein stability index under setting [2] was determined as 3.36 ± 0.85.
In the case of ITVTQSHLVIQNLFEGMIWFLVPI [CDS1], the protein stability index was 3.25 ± 0.45 under setting [1] and 3.24 ± 0.34 under setting [2].
Sequence IVVHCSAGIGRTGTFCSLDICLAQ [PTPN9] came in with a protein stability index under setting [1] of 3.85 ± 1 and a protein stability index under setting [2] of 3.45 ± 0.19.
In the case of IVWNKKGKKVSNQRFEVIEFDDGS [PTPRD], the protein stability index was 3.31 ± 0.18 under setting [1] and 3.15 ± 0.062 under setting [2].
Consider IYRKREEKRNAGNAVRSAMKSEEQ [KMT5A], for which the protein stability index is 4.47 ± 0.17 under setting [1] and 4.39 ± 0.25 under setting [2].
Take KACNKAVAGEFSEPVTLETPAFMF [FSD1]: the protein stability index under setting [1] turned out to be 2.84 ± 0.18 and the protein stability index under setting [2] is 2.98 ± 0.33.
Sequence KAQLPRRESERRNHSLARHADILA [FBXO28] came in with a protein stability index under setting [1] of 3.85 ± 0.11 and a protein stability index under setting [2] of 3.96 ± 0.14.
For KARKTYERLVAQFPSSGRFWKLYI [CSTF3], the protein stability index stood at 2.57 ± 0.39 under setting [1] and 2.44 ± 0.35 under setting [2].
With KASGKNKHFKVQLVDNVYCIGQRR [NCK2], the protein stability index runs as follows: under setting [1], 3.06 ± 0.23; under setting [2], 3.2 ± 0.16.
The corresponding values for KEAVQNERDRISTRRSSYEDSSLP [HNF4A] are 5.07 ± 0.31 and 5.14 ± 0.25.
Turning to KEQEETIQRIDENVLGAQLDVEAA [STX5], the protein stability index is 5.52 ± 0.22 under setting [1] and 5.4 ± 0.34 under setting [2].
The sequence KFLASHFPNRTDQQCQYRWLRVLN [MYBL2] returned a protein stability index under setting [1] of 2.19 ± 0.46 and a protein stability index under setting [2] of 2.2 ± 0.29.
The corresponding values for KFSPDGKYVVSGFDVDHGICIMDA [WDR88] are 2.69 ± 0.21 and 3.13 ± 0.49.
As for KGEYEVAEGIGSTVFRAILDYYKT [BTBD10], the protein stability index by setting is: under setting [1], 2.43 ± 0.4; under setting [2], 2.35 ± 0.41.
For the sequence KGGISETRIEKRIVITGDADIDHD [EPB41L3], the protein stability index came to 5.31 ± 0.2 under setting [1] and 5.16 ± 0.51 under setting [2].
On to KGSSELGFPRVAPEDEVIVNQYVI [RNF208], for which the protein stability index runs as follows: under setting [1], 2.8 ± 0.44; under setting [2], 2.64 ± 0.36.
For the sequence KHSNSPPLVTPPQSPVSPQPPAIT [SMTNL2], the protein stability index came out at 4.82 ± 0.15 under setting [1] and 4.92 ± 0.15 under setting [2].
As for KISGGPRISYPLLHEWALREGEE [MAGEA6], the protein stability index is, setting by setting: under setting [3], 2.68 ± 0.52; under setting [4], 3.02 ± 0.65.
Regarding KKAEKKLEENPYDLDAWSILIREA [CSTF3], the protein stability index under setting [1] was determined as 3.19 ± 0.36 and the protein stability index under setting [2] was determined as 3.26 ± 0.41.
In the case of KKDKCGRTPLHYAAANCHFHCIET [ANKRD44], the protein stability index is, setting by setting: under setting [1], 2.5 ± 0.096; under setting [2], 2.63 ± 0.29.
Turning to KKDTLTEEETQFYISETVLAIDAI [STK38L], the protein stability index reads like this: under setting [1], 3.85 ± 0.3; under setting [2], 3.97 ± 0.15.
In the case of KKFLTLGSKFRYSGRTQAQTRRAS [EPB41L3], the protein stability index was 3.27 ± 0.61 under setting [1] and 3.49 ± 0.41 under setting [2].
Regarding KLATQHKQLISQTKKKQWCYNCEE [ZMYND11], the protein stability index reads like this: under setting [1], 3.48 ± 0.4; under setting [2], 3.8 ± 0.23.
For the sequence KLFCIPVHGIRSVGTAAVNMCLVA [IMPA1], the protein stability index runs as follows: under setting [1], 2.4 ± 0.8; under setting [2], 2.26 ± 0.85.
Take KLFDDCTQQFKAEKLKEKLKMKER [PPP2R5C]: the protein stability index was 3.43 ± 0.14 under setting [1] and 3.71 ± 0.15 under setting [2].
